For the test, the target named is T1, VP28 (White spot syndrome virus).
T1 construct: Recombinant antigen; also called Coat protein VP28
T1 chain: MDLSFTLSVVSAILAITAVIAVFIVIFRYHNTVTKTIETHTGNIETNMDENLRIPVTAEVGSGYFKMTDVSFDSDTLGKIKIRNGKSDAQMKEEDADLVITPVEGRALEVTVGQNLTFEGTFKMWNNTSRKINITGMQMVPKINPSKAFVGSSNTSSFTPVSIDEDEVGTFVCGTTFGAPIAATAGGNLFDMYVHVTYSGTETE
Kind of test: phage ELISA, antigen-coated wells.

B1: NBX0730 (VHH)
VHH: QVQLQESGGGLVQTGDSLRLACAASGRTFSSYPMAWYRQAPGQEREFVAGINRNGNIPVYADSVKGRFTISRDNAKNTVYLQMNNLKPEDTAVYYCAARTIYDSHYTSWGQGTQVTVSS
notes: on phage in the phage ELISA
In the case of B1, the “binding above PBS-coated wells” value was at least 50%.

For the origin of these results see patent US20220119506A1 (NOVOBIND LIVESTOCK THERAPEUTICS, published 2022).
